Series [1] has as its target SPOUT catalytic domain of TrmTS (lacks NFLD and THUMP domain, residues 2-151) (Thermococcus kodakarensis) (UniProt Q5JGM1). Put plainly: SEC; Superdex 200 10/300, room temperature; 150 ug truncated TrmTS heated at 50°C for 10 min, run in buffer C (50 mM Tris-HCl pH 8.0, 500 mM KCl, 300 mM ammonium sulfate); size standards 29-150 kDa. For orientation: In gel filtration, larger molecules generally elute earlier.

Series [2] deals with T1, TrmTS (TK1257 gene product) (Thermococcus kodakarensis KUW1, UniProt Q5JGM1 1-355).
T1 sequence: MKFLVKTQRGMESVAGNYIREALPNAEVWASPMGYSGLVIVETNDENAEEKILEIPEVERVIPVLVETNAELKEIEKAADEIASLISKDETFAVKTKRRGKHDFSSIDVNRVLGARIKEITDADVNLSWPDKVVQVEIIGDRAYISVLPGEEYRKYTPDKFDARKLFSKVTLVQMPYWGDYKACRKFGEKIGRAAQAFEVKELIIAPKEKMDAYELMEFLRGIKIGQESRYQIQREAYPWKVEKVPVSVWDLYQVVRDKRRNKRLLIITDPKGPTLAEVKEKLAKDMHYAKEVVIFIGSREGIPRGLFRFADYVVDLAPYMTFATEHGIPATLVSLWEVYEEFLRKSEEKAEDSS
Put plainly: competition (inhibition of methylation of wild-type tRNA-Trp transcript); SAM; competitor against wild-type tRNA-Trp transcript; Inhibition assay conditions (buffer, salt, pH, temperature) not given in the material. The following applies: protein: recombinant; tags: none (untagged; native start and stop codons in pET30a); chain copies: 2; tRNA cloverleaf.

Substrate in the series “purified protein”: C[S+](CC[C@H](N)C(=O)O)C[C@H]1O[C@@H](n2cnc3c(N)ncnc32)[C@H](O)[C@@H]1O
Put plainly: purified protein. The note with it: 35 μM T. kodakarensis tRNA-Trp transcript, 3 μM enzyme (not fully steady-state), 5 mM MgCl2, 300 mM KCl, pH 7.6, 75°C, mixture of unlabelled and 3H-labelled compound :1.

Series [3] deals with the molecule itself. Description: SEC; Superdex 200 10/300, room temperature; 200 ug full-length TrmTS heated at 75°C for 10 min, then run in buffer SEC (50 mM sodium phosphate pH 8.0, 500 mM KCl, 6 mM 2-mercaptoethanol, 5% glycerol); sample buffer also held 0.1% Triton X-100; size standards 29-150 kDa.

Where a chain is given by its changes, count along the chain named. In names and notes the source's numbering stands.

Usually stoichiometry N stands for the number of molecules, sites or subunits per partner or assembly. As for “SPOUT catalytic domain of TrmTS (lacks NFLD and THUMP domain, residues 2-151) (from UniProt Q5JGM1 152-355) (domain or fragment)”, in series [1], the stoichiometry N stood at 2.

B1: tRNA-Trp C6G-G67C transcript (G6-C67) (structured_RNA)
RNA: GGGGGGGUGGUGUAGCCUGGUCCAUCAUCGCGGGCUCCAGACCCGCGGACCGGGGUUCAAAUCCCCGCCCCCCCACCA
The term IC50 denotes the concentration that inhibits the measured activity by half. For B1, in series [2], the IC50 is around 30 µM.

B2: TrmTS (TK1257 gene product), full-length wild type (enzyme, Thermococcus kodakarensis, UniProt Q5JGM1 1-355, looked up)
chain: T1 sequence
notes: TK1257 gene product (TrmTS), tRNA 2'-O-methyltransferase of Thermococcus kodakarensis strain KUW1, 355 amino acids; NFLD, THUMP, linker and SPOUT domains; gene amplified from the ATG to the stop codons; Cloned between NdeI and BamHI of pET30a with its own stop codons; also called full-length TrmTS; wild-type TrmTS; source: E. coli BL21 (DE3) Rosetta 2, purified (75°C heat step, HiTrap Q HP, …)
As a reminder, the Km is the concentration of substrate that gives half-maximal velocity. As to B2, the Km in the series “purified protein” stood at 23 µM. Besides, the “stoichiometry N” value in series [3] is 4.

B3: TrmTS (TK1257 gene product) (Thermococcus kodakarensis KOD1; E301A) (protein)
chain: T1 sequence with E301A
Take B3: the Km in “purified protein” was 21 ± 5.1 µM.

B4: TrmTS (TK1257 gene product) (Thermococcus kodakarensis KOD1; K155A) (protein)
chain: T1 sequence with K155A
Regarding B4, in the series “purified protein”, the Michaelis-Menten constant (Km) is 44 ± 7.6 µM.

The values are drawn from publication PMC12255305, “A transfer RNA methyltransferase with an unusual domain composition catalyzes 2′-O-methylation at position 6 in tRNA” (Nucleic Acids Research, 2025).
